Key:
RBD-VLP = RBD-VLP (SARS-CoV-2, UniProt P0DTC2); experiment: ELISA; conditions: both partners purified
[1] = target: T1, SARS-CoV-2 spike protein (Wuhan strain), full length, expressed on MDCK cells (SARS-CoV-2, UniProt P0DTC2); experiment: flow cytometry on cells; conditions: one partner purified
T1 construct: source: MDCK-SIAT1 cells stably transfected (lentiviral vector), on cells

B1: FD-5D human monoclonal antibody (IgG1) (antibody, V domains shown)
VH: EVQLVESGGGLVQPGGSLRLSCAASGFTFSSYSMNWVRQAPGKGLEWVSYISSSSSTIYYADSVKGRFTISRDNAKNSLYLQMNSLRAEDTAVYYCASPGGITAAGTSVLFGYYGMDVWGQGTTVTVSS
VL: not shown
notes: source: ExpiCHO cells, purified (MabSelect SuRe, desalted)
binding result (RBD-VLP): binds

B2: REGN10987 monoclonal antibody (antibody, V domains shown)
VH: QVQLVESGGGVVQPGRSLRLSCAASGFTFSNYAMYWVRQAPGKGLEWVAVISYDGSNKYYADSVKGRFTISRDNSKNTLYLQMNSLRTEDTAVYYCASGSDYGDYLLVYWGQGTLVTVSS
VL: QSALTQPASVSGSPGQSITISCTGTSSDVGGYNYVSWYQQHPGKAPKLMIYDVSKRPSGVSNRFSGSKSGNTASLTISGLQSEDEADYYCNSLTSISTWVFGGGTKLTVL
notes: also called REGN10977 (as printed once)
binding result (RBD-VLP): binds

B3: EY-6A human monoclonal antibody (IgG1) (antibody, V domains shown)
VH: EVQLVESGGGVVQPGRSLRLSCAASAFTFSSYDMHWVRQAPGKGLEWVAVISYDGSNKYYADSVKGRFTISRDNSKNTLYLQMNSLRAEDTAVYYCAKDGGKLWVYYFDYWGQGTLVTVSS
VL: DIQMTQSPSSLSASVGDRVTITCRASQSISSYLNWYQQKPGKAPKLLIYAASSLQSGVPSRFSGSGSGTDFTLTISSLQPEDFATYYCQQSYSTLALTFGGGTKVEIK
binding result [1]: binds | binding result (RBD-VLP): binds

B4: FD-11A human monoclonal antibody (IgG1) (antibody, V domains shown)
VH: EVQLVESGGGVVQPGRSLRLSCAASGFTFSSYGMHWVRQAPGKGLEWVAVIWYDGSNKYYADSVKGRFTISRDNSKNTLYLQMNSLRAEDTAVYYCAKGPDILTGYYNYYYYGMDVWGQGTMVTVSS
VL: QSVLTQPPSVSGAPGQRVTISCTGSSSNIGAGYDVHWYQQLPGTAPKLLIYGNSNRPSGVPDRFSGSKSGTSASLAITGLQAEDEADYYCQSYDSSLSGFYVVFGGGTKLTVL
binding result [1]: binds | binding result (RBD-VLP): binds

B5: FI-3A human monoclonal antibody (IgG1) (antibody, V domains shown)
VH: EVQLLESGGGLIQPGGSLRLSCAASGFTVSSNYMSWVRQAPGKGLEWVSVIYSGGSTYYADSVKGRFTISRDNSKNTLYLQMNSLRAEDTAVYYCARDHVRPGMNIWGQGTMVTVSS
VL: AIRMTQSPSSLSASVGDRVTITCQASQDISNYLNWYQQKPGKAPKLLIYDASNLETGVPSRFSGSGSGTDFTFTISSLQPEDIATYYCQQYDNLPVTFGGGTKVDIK
binding result [1]: binds | binding result (RBD-VLP): binds

B6: REGN10933 monoclonal antibody (antibody, V domains shown)
VH: QVQLVESGGGLVKPGGSLRLSCAASGFTFSDYYMSWIRQAPGKGLEWVSYITYSGSTIYYADSVKGRFTISRDNAKSSLYLQMNSLRAEDTAVYYCARDRGTTMVPFDYWGQGTLVTVSS
VL: DIQMTQSPSSLSASVGDRVTITCQASQDITNYLNWYQQKPGKAPKLLIYAASNLETGVPSRFSGSGSGTDFTFTISGLQPEDIATYYCQQYDNLPLTFGGGTKVEIK
notes: as for B1
binding result (RBD-VLP): binds
